Test results as given in US20200024330A1.

Key:
Assay in all cases: cell-based or functional assay
[1] = target: HIV-1 92RW008 envelope glycoprotein (Env) (HIV-1)
[2] = target: HIV-1 92UG005 envelope glycoprotein (Env) on pseudovirus (HIV-1)
[3] = target: HIV-1 92UG024 envelope protein (Env) on pseudovirus (HIV-1)
[4] = target: HIV-1 92UG031 envelope glycoprotein (Env) (HIV-1)
[5] = target: HIV-1 93UG077 envelope glycoprotein (Env) on pseudovirus (HIV-1)
[6] = target: HIV-1 98CN006 envelope glycoprotein (Env) on pseudovirus (HIV-1)
[7] = target: HIV-1 Env of isolate MGRM-D-020 (clade D) (HIV-1)
[8] = target: HIV-1 Env of isolate MGRM-G-025 (clade G pseudovirus) (HIV-1)
[9] = target: HIV-1 Env of pseudovirus MGRM-Chronic-B-008, clade B (HIV-1)
[10] = target: HIV-1 MGRM-A-013 envelope glycoprotein (Env) (HIV-1)
[11] = target: HIV-1 MGRM-C-002 Env (HIV-1)
[12] = target: HIV-1 MGRM-C-004 Env (HIV-1)
[13] = target: HIV-1 MGRM-C-006 Env (HIV-1)
[14] = target: HIV-1 MGRM-C-013 Env (HIV-1)
[15] = target: HIV-1 MGRM-C-023 Env (HIV-1)
[16] = target: HIV-1 MGRM-F1-010 Env (pseudovirus) (HIV-1)
[17] = target: HIV-1 MGRM-F1-015 Env (pseudovirus) (HIV-1)
[18] = target: HIV-1 MGRM-F1-023 Env (pseudovirus) (HIV-1)
[19] = target: HIV-1 NL43 envelope protein (Env) on pseudovirus (HIV-1)
[20] = target: HIV-1 VLGCA1 envelope glycoprotein (Env) on pseudovirus (HIV-1)
[21] = target: HIV-1 APV_17 Env (pseudovirus) (HIV-1)
[22] = target: HIV-1 CAAN.A2 Env (pseudovirus) (HIV-1)
[23] = target: HIV-1 Env of isolate 92UG114 (subtype D) (HIV-1)
[24] = target: HIV-1 Env of isolate MG RM-D-014 (subtype D) (HIV-1)
[25] = target: HIV-1 Env of isolate MG RM-D-024 (subtype D) (HIV-1)
[26] = target: HIV-1 Env of isolate MGRM-C-023 (pseudovirus) (HIV-1 isolate MGRM-C-023, subtype C)
[27] = target: HIV-1 JR-CSF Env L125A (HIV-1 (isolate JR-CSF)) (UniProt P20871)
[28] = target: HIV-1 JR-CSF Env N160K (HIV-1 (isolate JR-CSF)) (UniProt P20871)
[29] = target: HIV-1 JR-CSF Env P470A (HIV-1 (isolate JR-CSF)) (UniProt P20871)
[30] = target: HIV-1 JRCSF Env (pseudovirus) (HIV-1) (UniProt P20871)
[31] = target: HIV-1 MGRM-C-028 envelope glycoprotein (Env) on pseudovirus (HIV-1)

1443_C16 (PG16) (TCN-116) (antibody), sequence (VH): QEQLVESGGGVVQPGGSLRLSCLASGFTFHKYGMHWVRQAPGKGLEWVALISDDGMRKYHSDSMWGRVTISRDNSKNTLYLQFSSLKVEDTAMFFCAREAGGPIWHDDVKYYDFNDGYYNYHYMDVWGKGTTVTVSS
1443_C16 (PG16) (TCN-116) (antibody), sequence (VL): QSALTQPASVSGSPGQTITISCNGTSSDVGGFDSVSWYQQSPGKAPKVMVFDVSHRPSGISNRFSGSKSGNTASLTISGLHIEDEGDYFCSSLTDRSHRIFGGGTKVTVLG

## b12 (antibody)
[1]
  IC50 (µg/ml), pseudovirus neutralization: 9.46 µg/mL
[2]
  IC90 (pseudovirus neutralization): > 50 µg/mL
[3]
  neutralization IC50: 49.1 µg/mL
[4]
  IC50 (µg/ml), pseudovirus neutralization: > 50 µg/mL
[5]
  IC90 (pseudovirus neutralization): > 50 µg/mL
[6]
  IC50 (µg/ml), pseudovirus neutralization: > 50 µg/mL
[7]
  IC50 (µg/ml), pseudovirus neutralization: > 50 µg/mL
[8]
  IC50 (µg/ml), pseudovirus neutralization: > 50 µg/mL
[9]
  IC50 (µg/ml), pseudovirus neutralization: 2.82 µg/mL
[10]
  IC50 (µg/ml), pseudovirus neutralization: 7.04 µg/mL
[11]
  IC50: > 50 µg/mL
[12]
  IC50: 5.46 µg/mL
[13]
  IC50: > 50 µg/mL
[14]
  IC50: > 50 µg/mL
[15]
  IC50: 13.9 µg/mL
[16]
  IC50 (µg/ml), pseudovirus neutralization: > 50 µg/mL
[17]
  IC50 (µg/ml), pseudovirus neutralization: > 50 µg/mL
[18]
  IC50 (µg/ml), pseudovirus neutralization: > 50 µg/mL
[19]
  neutralization IC50: 0.06 µg/mL
[20]
  IC50 (µg/ml), pseudovirus neutralization: > 50 µg/mL

## 1495_C14 (PGC14) (antibody)
[1]
  IC50 (µg/ml), pseudovirus neutralization: 37 µg/mL
[3]
  neutralization IC50: > 50 µg/mL
[4]
  IC50 (µg/ml), pseudovirus neutralization: > 50 µg/mL
[6]
  IC50 (µg/ml), pseudovirus neutralization: > 50 µg/mL
[7]
  IC50 (µg/ml), pseudovirus neutralization: > 50 µg/mL
[8]
  IC50 (µg/ml), pseudovirus neutralization: > 50 µg/mL
[9]
  IC50 (µg/ml), pseudovirus neutralization: > 50 µg/mL
[10]
  IC50 (µg/ml), pseudovirus neutralization: > 50 µg/mL
[11]
  IC50: > 50 µg/mL
[12]
  IC50: > 50 µg/mL
[13]
  IC50: > 50 µg/mL
[14]
  IC50: > 50 µg/mL
[15]
  IC50: > 50 µg/mL
[16]
  IC50 (µg/ml), pseudovirus neutralization: > 50 µg/mL
[17]
  IC50 (µg/ml), pseudovirus neutralization: > 50 µg/mL
[18]
  IC50 (µg/ml), pseudovirus neutralization: > 50 µg/mL
[19]
  neutralization IC50: 0.373 µg/mL
[20]
  IC50 (µg/ml), pseudovirus neutralization: > 50 µg/mL

## 2F5 (antibody)
[1]
  IC50 (µg/ml), pseudovirus neutralization: 10.4 µg/mL
[2]
  IC90 (pseudovirus neutralization): > 50 µg/mL
[3]
  neutralization IC50: 1.27 µg/mL
[4]
  IC50 (µg/ml), pseudovirus neutralization: 3.81 µg/mL
[5]
  IC90 (pseudovirus neutralization): 33.4 µg/mL
[6]
  IC50 (µg/ml), pseudovirus neutralization: > 50 µg/mL
[7]
  IC50 (µg/ml), pseudovirus neutralization: > 50 µg/mL
[8]
  IC50 (µg/ml), pseudovirus neutralization: > 50 µg/mL
[9]
  IC50 (µg/ml), pseudovirus neutralization: > 50 µg/mL
[10]
  IC50 (µg/ml), pseudovirus neutralization: 0.66 µg/mL
[11]
  IC50: 44.7 µg/mL
[12]
  IC50: > 50 µg/mL
[13]
  IC50: > 50 µg/mL
[14]
  IC50: 18.4 µg/mL
[15]
  IC50: > 50 µg/mL
[16]
  IC50 (µg/ml), pseudovirus neutralization: 14.6 µg/mL
[17]
  IC50 (µg/ml), pseudovirus neutralization: 0.1 µg/mL
[18]
  IC50 (µg/ml), pseudovirus neutralization: 1.78 µg/mL
[19]
  neutralization IC50: 2.41 µg/mL
[20]
  IC50 (µg/ml), pseudovirus neutralization: 3.9 µg/mL

## 5123_A06 (PGT-125) (antibody)
[2]
  IC50 (ug/ml), neutralizing activity: > 10 µg/mL
  neutralization IC50: > 10 µg/mL
  neutralization IC80: > 10 µg/mL
  neutralization IC90: > 10 µg/mL
  neutralization IC95: > 10 µg/mL
[5]
  IC50 (ug/ml), neutralizing activity: 0.0262 µg/mL
  neutralization IC50: 0.0262 µg/mL
  neutralization IC80: 0.0926 µg/mL
  neutralization IC90: 0.206 µg/mL
  neutralization IC95: 0.487 µg/mL
[21]
  IC50, pseudovirus neutralization: 8.06 µg/mL
[22]
  IC50, pseudovirus neutralization: 5.47 µg/mL
[23]
  IC50 (µg/mL), pseudovirus neutralization: 0.349 µg/mL
[24]
  IC50 (µg/mL), pseudovirus neutralization: > 50 µg/mL
[25]
  IC50 (µg/mL), pseudovirus neutralization: > 50 µg/mL
[26]
  IC50 (µg/mL) neutralization: 1.31 µg/mL
[27]
  Fold IC50 increase relative to wild-type: 1.6 fold
[28]
  Fold IC50 increase relative to wild-type: 0.5 fold
[29]
  Fold IC50 increase relative to wild-type: 1.6 fold
[30]
  IC50, pseudovirus neutralization: 0.004 µg/mL
[31]
  IC50 (ug/ml), neutralizing activity: 5.78 µg/mL
  neutralization IC50: 5.78 µg/mL
  neutralization IC80: > 10 µg/mL
  neutralization IC90: > 10 µg/mL
  neutralization IC95: > 10 µg/mL

## 2G12 (antibody)
[1]
  IC50 (µg/ml), pseudovirus neutralization: 22.5 µg/mL
[2]
  IC90 (pseudovirus neutralization): > 50 µg/mL
[3]
  neutralization IC50: 0.59 µg/mL
[4]
  IC50 (µg/ml), pseudovirus neutralization: > 50 µg/mL
[5]
  IC90 (pseudovirus neutralization): > 50 µg/mL
[6]
  IC50 (µg/ml), pseudovirus neutralization: > 50 µg/mL
[7]
  IC50 (µg/ml), pseudovirus neutralization: > 50 µg/mL
[8]
  IC50 (µg/ml), pseudovirus neutralization: 31.9 µg/mL
[9]
  IC50 (µg/ml), pseudovirus neutralization: 0.55 µg/mL
[10]
  IC50 (µg/ml), pseudovirus neutralization: > 50 µg/mL
[11]
  IC50: > 50 µg/mL
[12]
  IC50: > 50 µg/mL
[13]
  IC50: > 50 µg/mL
[14]
  IC50: > 50 µg/mL
[15]
  IC50: > 50 µg/mL
[17]
  IC50 (µg/ml), pseudovirus neutralization: > 50 µg/mL
[18]
  IC50 (µg/ml), pseudovirus neutralization: 9.23 µg/mL
[19]
  neutralization IC50: 0.75 µg/mL
[20]
  IC50 (µg/ml), pseudovirus neutralization: > 50 µg/mL

## 1443_C16 (PG16) (TCN-116) (antibody)
[1]
  IC50 (µg/ml), pseudovirus neutralization: 0.002 µg/mL
[2]
  IC90 (pseudovirus neutralization): > 50 µg/mL
[3]
  neutralization IC50: > 50 µg/mL
[4]
  IC50 (µg/ml), pseudovirus neutralization: 0.43 µg/mL
[5]
  IC90 (pseudovirus neutralization): > 50 µg/mL
[6]
  IC50 (µg/ml), pseudovirus neutralization: > 50 µg/mL
[7]
  IC50 (µg/ml), pseudovirus neutralization: 16.3 µg/mL
[8]
  IC50 (µg/ml), pseudovirus neutralization: > 50 µg/mL
[9]
  IC50 (µg/ml), pseudovirus neutralization: 0.73 µg/mL
[10]
  IC50 (µg/ml), pseudovirus neutralization: 0.09 µg/mL
[11]
  IC50: 28.3 µg/mL
[12]
  IC50: 5.09 µg/mL
[13]
  IC50: 2.62 µg/mL
[14]
  IC50: > 50 µg/mL
[15]
  IC50: 0.09 µg/mL
[16]
  IC50 (µg/ml), pseudovirus neutralization: 0.01 µg/mL
[17]
  IC50 (µg/ml), pseudovirus neutralization: > 50 µg/mL
[18]
  IC50 (µg/ml), pseudovirus neutralization: > 50 µg/mL
[19]
  neutralization IC50: < 0.0025 µg/mL
[20]
  IC50 (µg/ml), pseudovirus neutralization: 0.18 µg/mL

## 4858_P08 (PGT-123) (antibody)
[2]
  IC50 (ug/ml), neutralizing activity: 2.49 µg/mL
  IC50, pseudovirus neutralization: 2.49 µg/mL
  IC80, pseudovirus neutralization: > 10 µg/mL
  IC90 (pseudovirus neutralization): > 10 µg/mL
  IC95, pseudovirus neutralization: > 10 µg/mL
[5]
  IC50 (ug/ml), neutralizing activity: 0.0303 µg/mL
  IC50, pseudovirus neutralization: 0.0303 µg/mL
  IC80, pseudovirus neutralization: 0.143 µg/mL
  IC90 (pseudovirus neutralization): 0.35 µg/mL
  IC95, pseudovirus neutralization: 0.78 µg/mL
[21]
  IC50, pseudovirus neutralization: 0.114 µg/mL
[22]
  IC50, pseudovirus neutralization: 0.015 µg/mL
[23]
  IC50 (µg/mL), pseudovirus neutralization: 0.005 µg/mL
[24]
  IC50 (µg/mL), pseudovirus neutralization: 0.009 µg/mL
[25]
  IC50 (µg/mL), pseudovirus neutralization: 0.023 µg/mL
[26]
  IC50 (µg/mL) neutralization: 0.011 µg/mL
[27]
  Fold IC50 increase relative to wild-type: 2.5 fold
[28]
  Fold IC50 increase relative to wild-type: 1 fold
[29]
  Fold IC50 increase relative to wild-type: 0.8 fold
[30]
  IC50, pseudovirus neutralization: 0.046 µg/mL
[31]
  IC50 (ug/ml), neutralizing activity: 0.443 µg/mL
  IC50, pseudovirus neutralization: 0.443 µg/mL
  IC80, pseudovirus neutralization: 2.8 µg/mL
  IC90 (pseudovirus neutralization): 7.11 µg/mL
  IC95, pseudovirus neutralization: > 10 µg/mL

## 4E10 (antibody)
[1]
  IC50 (µg/ml), pseudovirus neutralization: 14.5 µg/mL
[2]
  IC90 (pseudovirus neutralization): > 50 µg/mL
[3]
  neutralization IC50: 1.32 µg/mL
[4]
  IC50 (µg/ml), pseudovirus neutralization: 4.94 µg/mL
[5]
  IC90 (pseudovirus neutralization): > 50 µg/mL
[6]
  IC50 (µg/ml), pseudovirus neutralization: 1.91 µg/mL
[7]
  IC50 (µg/ml), pseudovirus neutralization: > 50 µg/mL
[8]
  IC50 (µg/ml), pseudovirus neutralization: 1.7 µg/mL
[9]
  IC50 (µg/ml), pseudovirus neutralization: 16.7 µg/mL
[10]
  IC50 (µg/ml), pseudovirus neutralization: 1.46 µg/mL
[11]
  IC50: 18.2 µg/mL
[12]
  IC50: 24.2 µg/mL
[13]
  IC50: 4.94 µg/mL
[14]
  IC50: 2.1 µg/mL
[15]
  IC50: 1.95 µg/mL
[16]
  IC50 (µg/ml), pseudovirus neutralization: 3.69 µg/mL
[17]
  IC50 (µg/ml), pseudovirus neutralization: 0.53 µg/mL
[18]
  IC50 (µg/ml), pseudovirus neutralization: 0.44 µg/mL
[19]
  neutralization IC50: 4.95 µg/mL
[20]
  IC50 (µg/ml), pseudovirus neutralization: 4.58 µg/mL
